Measurements published in article PMC8368038 (The Journal of Biological Chemistry, 2021).

B1: KANK1_ANKRD^SF (Trx-tagged) (domain or fragment, mouse, UniProt E9Q238 1081-1360, looked up)
chain: EPEKEEIRERYELSEKMLSACNLLKYNIKDPKALASKDMRICLNTLQHDWFRVSSQKSAVPAMVGDYIAAFEAVSPDVLRYIINMADGNGNTALHYSVFHSNFQIVKLLLDADVCNVDHQNKAGYTPIMLAALAAVEAEKDMQVVEELFSCGDVNAKASQAGQTALMLAVSHGRIDMVKGLLACGADVNIQDDEGSTALMCASEHGHVEIVKLLLAQPGCNGHLEDNDGSTALSIALEAGHKDIAVLLYAHLNFSKAQSPSTPRLGRKTSPGPTHRGSFD
B2: eIF4A1 NTD (residues 1-237) (domain or fragment, mouse, UniProt P60843 1-237, looked up)
chain: MSASQDSRSRDNGPDGMEPEGVIESNWNEIVDSFDDMNLSESLLRGIYAYGFEKPSAIQQRAILPCIKGYDVIAQAQSGTGKTATFAISILQQIELDLKATQALVLAPTRELAQQIQKVVMALGDYMGASCHACIGGTNVRAEVQKLQMEAPHIIVGTPGRVFDMLNRRYLSPKYIKMFVLDEADEMLSRGFKDQIYDIFQKLNSNTQVVLLSATMPSDVLEVTKKFMRDPIRILVK
B3: KANK1_ANKRD^SF (residues 1088-1338, crystallised) (domain or fragment, mouse, UniProt E9Q238 1088-1338, looked up)
chain: RERYELSEKMLSACNLLKYNIKDPKALASKDMRICLNTLQHDWFRVSSQKSAVPAMVGDYIAAFEAVSPDVLRYIINMADGNGNTALHYSVFHSNFQIVKLLLDADVCNVDHQNKAGYTPIMLAALAAVEAEKDMQVVEELFSCGDVNAKASQAGQTALMLAVSHGRIDMVKGLLACGADVNIQDDEGSTALMCASEHGHVEIVKLLLAQPGCNGHLEDNDGSTALSIALEAGHKDIAVLLYAHLNFSKAQ

Tests used:
[1] = target: eukaryotic translation initiation factor 4A1 (eIF4A1), Trx-tagged (mouse, UniProt P60843 1-406); test: ITC
eIF4A1 Q148L = eIF4A1 Q148L (mouse, UniProt P60843 1-406, Q148L); test: ITC
[2] = target: B1; test: SEC
[3] = target: eIF4A1_NTD (residues 1-238, crystallised) (mouse, UniProt P60843 1-238); test: crystal structure

B1
binding result [1]: binds
Kd (eIF4A1 Q148L): 1.9 µM

B2
binding result [2]: binds

B3
stoichiometry N [3]: 1
